{
  "source": "paper PMC7159914",
  "molecular_target": "VP3 (capping enzyme) (Rotavirus A, UniProt Q1WK45 1-835)",
  "assay": "BLI",
  "data": [
    {"binder": "GGCUUUUA (ssRNA)", "note": "[biotinylated 8-mer ssRNA]", "values": [
      {"measurement": "binding result", "value": "binds"}
    ]}
  ]
}
